pIC50, pKd: −log10 of the molar value.
Legend:
HLA-A*01:01 [1] = test: IEDB peptide-MHC binding, purified MHC/competitive/fluorescence; filed as Kd, often an IC50 or EC50 that approximates it; ≥ and ≤ were set here for values at or beyond the usual limits of such assays
HLA-A*26:01 = test: as above
HLA-B*46:01 = test: as above
HLA-B*18:01 = test: as above
HLA-B*15:17 = test: as above
HLA-A*02:01 [2] = test: as above
HLA-B*27:03 = test: as above
HLA-B*15:01 [3] = test: as above
HLA-B*39:01 = test: as above
HLA-B*51:01 = test: as above
HLA-B*57:01 = test: as above
HLA-A*69:01 = test: as above
HLA-A*02:03 = test: IEDB peptide-MHC binding, purified MHC/direct/fluorescence; filed as Kd, often an IC50 or EC50 that approximates it; ≥ and ≤ were set here for values at or beyond the usual limits of such assays
HLA-A*68:02 = test: as above
HLA-A*02:19 = test: as above
HLA-A*23:01 = test: as above
HLA-A*02:12 = test: as above
HLA-A*03:01 [4] = test: as above
HLA-A*02:16 = test: as above
HLA-A*01:01 [5] = test: as above
HLA-A*24:03 = test: as above
HLA-B*07:02 = test: IEDB peptide-MHC binding, purified MHC/competitive/fluorescence; ≥ and ≤ were set here for values at or beyond the usual limits of such assays
HLA-B*08:01 = test: as above
HLA-A*02:01 [6] = test: as above; conditions: source organism: Zaire ebolavirus
HLA-B*15:01 [7] = test: as above
HLA-A*24:02 = test: as above
HLA-A*03:01 [8] = test: IEDB peptide-MHC binding, purified MHC/competitive/fluorescence; filed as Kd, often an IC50 or EC50 that approximates it; ≥ and ≤ were set here for values at or beyond the usual limits of such assays
HLA-B*15:01 [9] = test: IEDB peptide-MHC binding, purified MHC/direct/fluorescence; filed as Kd, often an IC50 or EC50 that approximates it; ≥ and ≤ were set here for values at or beyond the usual limits of such assays; conditions: source organism: Reston ebolavirus - Reston
HLA-A*02:11 = test: as above
HLA-A*29:02 = test: as above
HLA-A*11:01 = test: as above; conditions: source organism: Rickettsia sibirica 246
[10] = source organism: Escherichia coli
[11] = source organism: Influenza A virus (A/Memphis/1/1978(H1N1))
[12] = source organism: Influenza A virus H3N2
[13] = source organism: Vaccinia virus
[14] = source organism: Zaire ebolavirus
[15] = source organism: Sudan ebolavirus
[16] = source organism: Escherichia coli O157:H7 str. Sakai
[17] = source organism: Reston ebolavirus
[18] = source organism: Bacillus anthracis str. A0488
[19] = source organism: Orthohantavirus andesense
[20] = source organism: Rickettsia sibirica 246
[21] = source organism: Vaccinia virus Copenhagen

AAPLMQSLY
pKd (HLA-A*01:01 [1]; [10]): ≤ 4.70 | pKd (HLA-A*26:01; [10]): 5.88

AVDADDSHF
pKd (HLA-B*46:01; [11]): ≤ 4.70 | pKd (HLA-B*18:01; [11]): ≤ 4.70 | pKd (HLA-B*15:17; [11]): ≤ 4.70 | pKd (HLA-A*02:01 [2]; [11]): ≤ 4.70 | pKd (HLA-B*27:03; [11]): ≤ 4.70 | pKd (HLA-B*15:01 [3]; [11]): ≤ 4.70 | pKd (HLA-B*39:01; [11]): ≤ 4.70 | pKd (HLA-B*51:01; [11]): ≤ 4.70 | pKd (HLA-B*57:01; [11]): ≤ 4.70 | pKd (HLA-A*69:01; [11]): ≤ 4.70 | pKd (HLA-A*26:01; [11]): ≤ 4.70 | pKd (HLA-A*02:03; [12]): ≤ 4.70 | pKd (HLA-A*68:02; [12]): ≤ 4.70 | pKd (HLA-A*02:19; [12]): ≤ 4.70 | pKd (HLA-A*23:01; [12]): ≤ 4.70 | pKd (HLA-A*02:12; [12]): ≤ 4.70 | pKd (HLA-A*03:01 [4]; [12]): ≤ 4.70 | pKd (HLA-A*02:16; [12]): ≤ 4.70 | pKd (HLA-A*01:01 [5]; source organism: Influenza A virus (A/New York/140/1999(H3N2))): ≤ 4.70 | pKd (HLA-A*24:03; [12]): ≤ 4.70

EPPLVRHAC
pIC50 (HLA-B*07:02; [13]): ≤ 3.79 | pIC50 (HLA-B*08:01; [13]): ≤ 3.28

ERLAKLTEA
pIC50 (HLA-A*02:01 [6]): ≤ 3.76 | pIC50 (HLA-B*08:01; [14]): ≤ 3.97

FLLIHQGMH
pIC50 (HLA-A*02:01 [6]): 5.02 | pIC50 (HLA-B*08:01; [14]): ≤ 3.64 | pIC50 (HLA-B*15:01 [7]; [14]): ≤ 3.64

FLLQRWGGT
pIC50 (HLA-A*02:01 [6]): 5.08 | pIC50 (HLA-B*08:01; [14]): 5.20

FLRYLLFGI
pIC50 (HLA-B*07:02; [13]): ≤ 3.00 | pIC50 (HLA-B*08:01; [13]): ≤ 3.71 | pIC50 (HLA-A*24:02; [13]): 4.78

GFPRCRYVH
pIC50 (HLA-B*07:02; [15]): ≤ 4.08 | pIC50 (HLA-B*08:01; [14]): 4.91 | pIC50 (HLA-A*24:02; [15]): 5.91

GSQYVSLAY
pKd (HLA-A*03:01 [8]; [16]): 5.35 | pKd (HLA-A*01:01 [1]; [16]): 7.49

GVPPKVVSY
pKd (HLA-B*46:01; [17]): ≤ 4.70 | pKd (HLA-B*18:01; [17]): ≤ 4.70 | pKd (HLA-A*02:01 [2]; [17]): ≤ 4.70 | pKd (HLA-B*27:03; [17]): ≤ 4.70 | pKd (HLA-B*39:01; [17]): ≤ 4.70 | pKd (HLA-B*51:01; [17]): ≤ 4.70 | pKd (HLA-B*57:01; [17]): ≤ 4.70 | pKd (HLA-A*69:01; [17]): ≤ 4.70 | pKd (HLA-A*26:01; [17]): ≤ 4.70 | pIC50 (HLA-B*15:01 [7]; [15]): 4.24 | pKd (HLA-A*02:03; [17]): ≤ 4.70 | pKd (HLA-A*68:02; [17]): ≤ 4.70 | pKd (HLA-A*02:19; [17]): ≤ 4.70 | pKd (HLA-A*23:01; [17]): ≤ 4.70 | pKd (HLA-A*02:12; [17]): ≤ 4.70 | pKd (HLA-B*15:01 [9]): 5.59 | pKd (HLA-A*03:01 [4]; [17]): ≤ 4.70 | pKd (HLA-A*02:11; [17]): ≤ 4.70 | pKd (HLA-A*02:16; [17]): ≤ 4.70 | pKd (HLA-A*24:03; [17]): ≤ 4.70

LLDNSMFTY
pKd (HLA-A*01:01 [1]; [18]): 8.42

LSDAIFDDL
pKd (HLA-B*46:01; [14]): ≤ 4.70 | pKd (HLA-B*18:01; [14]): ≤ 4.70 | pKd (HLA-B*15:17; [14]): ≤ 4.70 | pKd (HLA-A*02:01 [2]; [14]): ≤ 4.70 | pKd (HLA-B*27:03; [14]): ≤ 4.70 | pKd (HLA-B*15:01 [3]; [14]): ≤ 4.70 | pKd (HLA-B*39:01; [14]): ≤ 4.70 | pKd (HLA-B*51:01; [14]): ≤ 4.70 | pKd (HLA-B*57:01; [14]): ≤ 4.70 | pKd (HLA-A*69:01; [14]): ≤ 4.70 | pKd (HLA-A*26:01; [14]): ≤ 4.70 | pKd (HLA-A*02:03; [14]): ≤ 4.70 | pKd (HLA-A*68:02; [14]): ≤ 4.70 | pKd (HLA-A*29:02; [14]): ≤ 4.70 | pKd (HLA-A*02:19; [14]): ≤ 4.70 | pKd (HLA-A*23:01; [14]): ≤ 4.70 | pKd (HLA-A*02:12; [14]): ≤ 4.70 | pKd (HLA-A*03:01 [4]; [14]): ≤ 4.70 | pKd (HLA-A*02:11; [14]): ≤ 4.70 | pKd (HLA-A*02:16; [14]): ≤ 4.70 | pKd (HLA-A*01:01 [5]; source organism: Sudan ebolavirus - Maleo (1979)): 5.73 | pKd (HLA-A*24:03; [14]): ≤ 4.70

STGKSIKFK
pKd (HLA-B*46:01; [19]): ≤ 4.70 | pKd (HLA-B*18:01; [19]): ≤ 4.70 | pKd (HLA-A*02:01 [2]; [19]): ≤ 4.70 | pKd (HLA-B*27:03; [19]): ≤ 4.70 | pKd (HLA-B*15:01 [3]; [19]): ≤ 4.70 | pKd (HLA-A*03:01 [8]; [19]): 7.83 | pKd (HLA-B*39:01; [19]): ≤ 4.70 | pKd (HLA-B*51:01; [19]): ≤ 4.70 | pKd (HLA-B*57:01; [19]): ≤ 4.70 | pKd (HLA-A*69:01; [19]): ≤ 4.70 | pKd (HLA-A*26:01; [19]): ≤ 4.70 | pKd (HLA-A*02:03; [19]): ≤ 4.70 | pKd (HLA-A*68:02; [19]): ≤ 4.70 | pKd (HLA-A*29:02; [19]): ≤ 4.70 | pKd (HLA-A*02:19; [19]): ≤ 4.70 | pKd (HLA-A*02:12; [19]): ≤ 4.70 | pKd (HLA-A*02:11; [19]): ≤ 4.70 | pKd (HLA-A*02:16; [19]): ≤ 4.70 | pKd (HLA-A*24:03; [19]): ≤ 4.70

SVANIDRIK
pKd (HLA-B*46:01; [20]): ≤ 4.70 | pKd (HLA-B*18:01; [20]): ≤ 4.70 | pKd (HLA-B*15:17; [20]): ≤ 4.70 | pKd (HLA-A*02:01 [2]; [20]): ≤ 4.70 | pKd (HLA-B*27:03; [20]): ≤ 4.70 | pKd (HLA-B*39:01; [20]): ≤ 4.70 | pKd (HLA-B*51:01; [20]): ≤ 4.70 | pKd (HLA-B*57:01; [20]): ≤ 4.70 | pKd (HLA-A*69:01; [20]): ≤ 4.70 | pKd (HLA-A*26:01; [20]): ≤ 4.70 | pKd (HLA-A*02:03; [20]): ≤ 4.70 | pKd (HLA-A*11:01): 8.22 | pKd (HLA-A*68:02; [20]): ≤ 4.70 | pKd (HLA-A*02:19; [20]): ≤ 4.70 | pKd (HLA-A*23:01; [20]): ≤ 4.70 | pKd (HLA-A*02:12; [20]): ≤ 4.70 | pKd (HLA-A*03:01 [4]; [20]): ≤ 4.70 | pKd (HLA-A*02:11; [20]): ≤ 4.70 | pKd (HLA-A*02:16; [20]): ≤ 4.70 | pKd (HLA-A*24:03; [20]): ≤ 4.70

TLDSEDGLY
pKd (HLA-A*01:01 [1]; [18]): 8.80

YANCSSISI
pIC50 (HLA-B*07:02; [21]): ≤ 3.76 | pIC50 (HLA-B*08:01; [21]): ≤ 2.97 | pIC50 (HLA-B*15:01 [7]; [21]): 4.61 | pIC50 (HLA-A*24:02; [21]): 5.88

YRNKPSIAT
pIC50 (HLA-B*08:01; [13]): ≤ 3.89

From the Immune Epitope Database (IEDB)
